Assay: yeast display, Sf9 membrane polyspecificity reagent, FACS + sequencing; frameworks hold sequencing errors
Procedure, shortened: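 Genes from sorted yeast were amplified by colony PCR, read by MiSeq 2 × 250 sequencing and filtered on CDR length. These cells carried a synthetic nanobody library in Saccharomyces cerevisiae BJ5465 and were sorted by FACS into low and high (top ~1%) gates on anti-HA and streptavidin fluorescence. Polyreactivity is labelled according to the gate of origin.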

QVQLVESGGGLVQAGGSLRLSCAASGRIFTSNAMGWYRQAPGKERELVASITSSSSTNYADSVKGRFTLSRDNAKNTVYLQMNSLKPEDTAVYYCAAERVWPYGHDYWGQGTQVTVSS
polyreactivity (PSR sort gate): low polyreactivity

QVQLVESGGGLDQAGGSLRLSCAPSGRIFYTNAMGWYRQAPGKERELVAAISSGGGRTYYADSVKGRFTISRDNAKNTVYLQMNSLKPEDTAVYYCAASNVGYRSYSRGFDYWGQGTQVTVSS
polyreactivity (PSR sort gate): high polyreactivity

QVQLVESGGGLVQAGGSLRLSCAASGRTFVRYALGWYRQAPGKERELVAAISWNDNSTYYADSVKGRFTISRDNAKNTVYLQMNSLKPEDTAVYYCATRVLTQQPGYQAYIFPEFDYWGQGTQVTVSS
polyreactivity (PSR sort gate): low polyreactivity

QVQLVESGGGLVQAGGSLRLSCAASGRTFLYNTRGWYRQAPGKERELVATITGSGASTYYADSVKGRFTISRDNAKNTVYLQMNSLKPEDTAVYYCATDNVYAYDYWGQGTQLTVSS
polyreactivity (PSR sort gate): high polyreactivity

QVQLVESGGGLVQAGGSRRLSCAPSGSIIGEYAMGWYRQAAGKERELVAAINVNGGRTYYADSVKGRFTISRDNAKYTVYLQMNRLKPEETAVYYCNAGYYLTLDYWGQGTQVTVSS
polyreactivity (PSR sort gate): high polyreactivity

QVQLVESGGGLVQAGGSLRLSCAASGRIFGVNAMGWYRQAPGKERELVAAISVSGDSTYYADSVKGRFTISRDNAKNTVYLQMNSLKPEDTAVYYCNAGFTFVPADLTDEYYWGQGTQVTVSS
polyreactivity (PSR sort gate): low polyreactivity

QVQLVESGGGLVQAGGSLRLSCAASGSIFDHNAMGWYRQAPGKEREFFARITSSGGGTYYADSVKGRFTISRDNAKNTVYLQMNSLKPEDTAVYYCAKTYYRQGARYPTMFYYWGQGTQVTVSS
polyreactivity (PSR sort gate): low polyreactivity

QDQLVESGGGLVQAGGSLRLSCAASGSTFKYYGMGWYRQAPGKERELVAAITSGGSTYDADSVKGRFTISRDNAKNTVYLQMNSLKPEDTAVYYCNTTAYSPTPYDYWGQGTQVTVSS
polyreactivity (PSR sort gate): low polyreactivity

QVQLVESAGGLVQAGGSLRLSCAASGIIFRYYAMGWYRQAPGKERELVARITSRGGTYYADSVKGRFTISRDNAKNNVYLQMNSLKPEDTAVYYCAASYLLTHGYAYNYWGQGTQVTVSS
polyreactivity (PSR sort gate): high polyreactivity

QVQLVESGGGLVQAGVSLRLSCAASGIILRYYVMGWYRQAPGKERELVAAITSRGGSTYYADSVKGRFTISRDNAKNTVYLQMNSLKPEDTAVYYCAAGYRNVNTFDYWGQGTQVTVSS
polyreactivity (PSR sort gate): high polyreactivity

QVQLVESGGGLVQAGGSLRLSCAASGRTFGPYTMGWYRQAPGKERELVATIRSDNTYYADSVKGRFTISRDNAKNTVYLQMNSLKPEDTAVYYCNAGYYSRYSYPYKYYYWGQGTQVTVSS
polyreactivity (PSR sort gate): high polyreactivity

QVQLVESGGGLVQAGGSLRLSCAASGYIYQRNAMGWYRQAPGKERELVARINYRGGSFYADSVKGRCTISRDNAKNTGYLQMNSLKPEDTAVYYCAARTSGDMYSWGQGTQVTVSS
polyreactivity (PSR sort gate): high polyreactivity

QVQLVESGGGLVQAGGSLRLSCAASGITFYFYAMGWYRQAPGKERELVAAISGSSGSTYYADSVKGRFTISRDNAKNTVYLQMNSLKPEDTAVYYCAAYNRWSGGFEYWGQGTQVTVSS
polyreactivity (PSR sort gate): high polyreactivity

QVQLQESGGGLVQAGGSLRLSCEASGSIYYPRTMGRSRQAPGKELEFVAGSGVGGTTYYADSVKGRFTISRDNAKNTVYLQMNSLIPEDDAVYYCAVAAYYDKYYVYWGQGTQVTVSC
polyreactivity (PSR sort gate): low polyreactivity

QVQLVESGGGLVQAGGSLRLSCAASGFTFRTYAMGWYRQAPGKERELVAAITGSGGSTYYADSVKGRFTISRDNAKNTVYLQMNSLKPEDTAVYYCNAVERSAFRGVRFDYDYWGQGTQVTVSS
polyreactivity (PSR sort gate): high polyreactivity

QVQLVESGGGLVQAGGSLRLSCAASGYTFGAYAMGWNRQAPGKERELVAAITVRAGRTYYADSVKGRFTISRDNAKNSVYLQMNSLKPEDTSVYYCARRNPLGGNEHDYWGHGTQVTVSS
polyreactivity (PSR sort gate): low polyreactivity

QVQLVESGGGLVQAGGSLRLSCAASGSTLGGYAMGWYRQAPGKERELVAAIRWGGNTYYADSVKGRFTISRDNAKNTVYLQMNSLKPEDTAVYYCAADRWYYFLMYYWGQGTQVTVSS
polyreactivity (PSR sort gate): low polyreactivity

QVQLVESGGGLVQAGGSLRLSCAASGIIFRANAMGWYRQAPGKERELVAAISGRGSSTTYADSVKGRFTISRDNAKNTVYLQMNSLKPEDTAVYYCAAAGWSARGYNYWGQGTQVTVSS
polyreactivity (PSR sort gate): high polyreactivity

QVQLVESGGGLVQAGGSLRLSCAASGSIFDGYAMGWNSQAPGKERELVAAISQRGGSTYYADSVKGRFTISRDNAKNTVYLQINSLKPEETAVYYCAADSSYGTRDYWGQGTQVTVSS
polyreactivity (PSR sort gate): low polyreactivity

QVQLVESGGGLVQAGGSLRLSCAASGFTFRRYAMGWYRQAPGKETELVAVITTAGSTNYADSVKGRFTISRDNAKNTVHLQMNSLIPEDTAVYYCATDNGTRKRRYDYWGQGTQVTVSS
polyreactivity (PSR sort gate): low polyreactivity

QGQLVESGGGLVQAGGSLRLSCAASGFIFGTYAMGWYRQAPGKERELVAAITGSGGDTYYADSVKGRFTISRDNAKNTVYLQMNSLKPEDTAVYYCAAVRPPTPSRRREDYWGQGTQVTVSS
polyreactivity (PSR sort gate): low polyreactivity

QVQLVESGVGLVQAGGSLRLSCAASGITFRSYAMGWYRQAPGKERELVAAIRSGGSTSYADSVKGRFTISRDNAKNTVYLQMNSLKPEDTAVYYCAAGGYVPLPDITFWKFGYWGQGTQVTVSS
polyreactivity (PSR sort gate): low polyreactivity

QVQLVESGGGLVQAGGSLRLSCAASGSTFGTNVMGWYRQAPGKERELVAAISRRGSSTYYADSVKGRFTISRDNAKNTVYLQMNSLKPEDTAVYYCAARVYPSAAMDSWGQGTQVTVSS
polyreactivity (PSR sort gate): high polyreactivity

QVQLVESGGGLVQAGGSLRLSCAASGFTFWPNAMGWYRQAPGKERELVAAINWSGGSTYYADSVKGRFTISRDNAKYTVSLQKNSLKPEDTAVYYCAADYVTNITFDGFNKYDYWGQGTQVTVSS
polyreactivity (PSR sort gate): low polyreactivity

QVQLVESGGGLVQAGGSLRLSCAASGFIFRWYAMGWYRQAPGKERELVASINWSGSRTNYADSVKGRFTISRDNAKYTVYLQMNSLKPEDTAVYYCNAYGGLQYDYWGQGTQVSVSS
polyreactivity (PSR sort gate): high polyreactivity

QVQLVESGGGLVQAGGSLRLSCAASGYIFAGYALGWYRQAPGKERELVARISRRGGITYYADSVKGRFTISRDNAKNTVYLQMNSLKPEDTAVYYCNGLGQSSSYDYWGQGTQVTVSS
polyreactivity (PSR sort gate): high polyreactivity

QVQLVESGGGLVQAGGSLRLSCAASGLIFPRYTMGWYRQAPGKERELVAAIRGTGGSTYYADSVKGRFTISRDNPKNTVYLQLNSLKPEDTAVYYCATRGKSHGQQFNYWGQGTQVTVSS
polyreactivity (PSR sort gate): high polyreactivity

QVQLVESGGGLVQAGGSLRLSCAASGSIFGYYAMGWYRQAPGKERELVASISGSGGTTYYADSVKGRFTISRDNAKNTVYLQMNSLKPEDTAVYYCAARRSIYGYPFVTSRRGYWGQGTQVTVSS
polyreactivity (PSR sort gate): high polyreactivity

QVQLVESGGGLVQAGGSLRLSCAASGITFYEYAMGWYRQAHGKERELVAAISQSGGSTYYADSVKGRFTISRDNAKNTVYLQMNSLKPEDTAVYYCAADIKWSIRRAYDYWGQGTQVTVSS
polyreactivity (PSR sort gate): high polyreactivity

QVQLVESGGGLVQAGGSLRLSCAASGSTFPFYDMGWYRQAPGKERELVTAIRSGGSTYADSVKGRFTISRDNAKNTVYLQMNSLKPVDTAVYYCAKRCPSIRYSRYRVKYDYWGQGTQVTVSS
polyreactivity (PSR sort gate): low polyreactivity

QVQLVESGGGLVQTGGSLRLSCAASGRIFRYYDMGWYRQAPGKEREFVAAITRSGAITYYADSVKGRFTISRDNAKNTVYLQMNSLKPEDTAVYYCFAVRHYALYAGRPYDYWGQGTQVTVSS
polyreactivity (PSR sort gate): low polyreactivity

QVQLVESGGGLVHAGGSLRLSCAASGGTFTYYTMGWYRKAPGKERELVARISKNGGRTYYADSVKGRFTLSRDNAKNTLYLKMISLKPEDTAVYYCNAAGRPYDFSGGRTMEYWGQGTQVTVST
polyreactivity (PSR sort gate): high polyreactivity

QVQLVESGGGLVEAGGSLRLSCAASGSIFSYNAMGWYRQAPGKERELVAAITDGGDRTYYADSVKGRFTISRDNAKNTVYLLMNSLIPEATAVYYCAAELYSYREDYGAHFAYEYWGQGTQVTVSS
polyreactivity (PSR sort gate): low polyreactivity

QVQLVESAGGLVQAGGSLRLSCAASGRIFSIYAMGWSRQAPGKERELVAAIRRGGSTSYADSVKGRFTISRDNAKNTVYLQMNSLKPEDTAVYYCAARLRYLGYDFWGQGTQVTVSS
polyreactivity (PSR sort gate): high polyreactivity

QVQLVESGGGLVQAGGSLRLSCAASGSTLQRYAMGWYRQAPGKERELVAAISSGGRTYYADSVKGRFTISRDNAKNTVYLQMNRLKPEDTAVYYCAAVLPARSEPVRYYYWGQGTQVTVSS
polyreactivity (PSR sort gate): high polyreactivity

QVQLVESGVGLVKAGGSLRLTCAASGSIFDNYPMGWYIQAPGKERELVAAISGRGGSTYYADSVKGRFTISRDNAKNSVYLQMNSLKPEVTAVYYCNALVHQTYYDYEYWGQGTQVTVSS
polyreactivity (PSR sort gate): high polyreactivity

QVQLVESGGGLVQARGSLRLSCAASGFTFDFYAMGWYRQAPGKERELVAAISKNDGTTYYADSVKGRFTISRDNAKNTVYLQMNSLKREDTAVYYCAAESGYPDYTYVSSGDYWGQGTQVTVSS
polyreactivity (PSR sort gate): low polyreactivity

QVQLVESGGGLVQAGGSLRLSCAASGSTFVYYAMGWYRQAPGKERELVARISSTGSTNYADSVKGRFTISRDNAKNTVYLQMHSLKPEDTAVYYCAARGPSPGHGTYTRTRGQSYYYWGQCTQVTVSS
polyreactivity (PSR sort gate): high polyreactivity

QVQLVESGGGLVQAGGSLRLSCAASGITYPRYTMGWYRQAPGKERQLVAAITRRSGSTNYADSVKGRITISRDNAKNTVYLQMNSLKPEDTAVYYCAAVVQVYDRGYHVIAKYYYWGQGTQVTVSS
polyreactivity (PSR sort gate): high polyreactivity

QVQLVESGGGLVQAGGSLRLSCAASGFTFAVYVMGWYRQAPGKERELVATISFSVGSTYYADSVKGRFTISGDNAKNTVYLQMNRLKPEDTAVYYCNADPPPEYYPDKDNYWGQGTQVTVSS
polyreactivity (PSR sort gate): low polyreactivity

QVQLVESGGGLVQAGGSLRLSCAASGRTFSSYAMGWYRQEPGKERELVARINSDGGRTYYADSVKGRFTISRDNAKNTVYLQMNSLKPEDTAVYYCAKRVVRGKVDYWGQGTQVTVSS
polyreactivity (PSR sort gate): low polyreactivity

QVQLVESGGGLDQAGGSLRLSCAASGIIFGVNVMGWYRQAPGKERELVATITWRGDSTYYADSVKGRFTISRDNAKNTVYLQMNSLKPEDTAVYYCARGARTGVREDDYWGQGTQVTLSS
polyreactivity (PSR sort gate): low polyreactivity

QDQHVESGGGLVQAGGSLRLSCADSGIIFYPNAMGWYRQAPGKERELVAAITGSGGSTYYADSVKGRFTISRDNAKYTVYIQMNSLKPEDTAVYYCATRYHRSDPSRDYWGQGTQVTVSS
polyreactivity (PSR sort gate): low polyreactivity
